Patent publication US9750814B2, “Polypeptides to inhibit epstein barr viral protein BHRF1 and B cell lymphoma family proteins” (priority 2014, dated 2017)

B1: Index 21: SEQ ID NO: 113; computational precursor for BbpD04 (protein)
chain: GFDWKKVLDKAKDLAENDVREAKQKLEEFYKKAMKLDLTQEMRRKLMLEWIAAMLMAIGDIFNAIEQGKQEADKLKKLGKVLSQLLDELKRRLEELKEEAALKAHDFGREFELKLLFG
modifications: optionally absent
B2: MINDI: SEQ ID NO: 2; target Mcl-1 (protein)
chain: ADPKKVLDKAKDQAENRVRELKQVLEELYKEARKLDLTQEMRKKLIERYAAAIIRAIGDINNAIYQAKQEAEKLKKAGLVNSQQLDELLRRLDELQKEASRKANEYGREFELKLEY

Columns and labels:
BHRF1 = BHRF1 (Epstein-Barr virus, UniProt P03182); conditions: FACS sort for binding signal after 400 nM BHRF1
From the text: This was reduced to 74 designs (Indexes-01 to 74) after filtering for strong interface binding energy, low monomer folding energy and a low number of buried unsatisfied hydrogen bonding atoms. Barcoded genes were synthesized (Table 3) and the library transformed in to yeast for surface display (6×10^5 transformants). […] The library was sorted by a single round of FACS for cells expressing surface protein (FIG. 1C; lane 1), for the 2% of cells with highest expression (lane 2), and for cells showing binding signal after incubation with 100 nM (lane 3) or 400 nM BHRF1 (lane 4). DNA from the naive and post-sorted populations was harvested and sequenced by Illumina deep sequencing, and the recovery of each designed sequence determined.
Binding of biotinylated protein to the yeast surface is detected with phycoerythrin-conjugated streptavidin (Invitrogen).
Yeast cells were sorted on a BD Influx cytometer operated by Spigot (BD Biosciences) and recovered in SDCAA media at 30° C. overnight. Yeast were lysed with 125 U/ml Zymolase at 37° C. for 5 h, and DNA was harvested (Zymoprep kit from Zymo Research). […] DNA was deep sequenced with a MiSeq™ sequencer (Illumina) and sequences were analyzed with adapted scripts from Enrich (Fowler et al., 2011). […]

Mcl-1 = target: T1, Mcl-1 (Homo sapiens, UniProt Q07820); experiment: Bio-layer interferometry (BLI), immobilized Mcl-1; type: binding; conditions: BLI titrations
T1 construct: Mcl-1 a.a; made in house; host or cells: E. coli BL21* (DE3)
From the text: 11-175 (NP_065129.1), Mcl-1 a.a. […] For later BLI analysis, Bcl-B and Bfl-1 were genetically fused to C-terminal maltose-binding-protein with an avi-6his tag for improved solution properties. Codon usage was optimized for E. coli expression. […] The genes for individually-tested designed proteins were assembled from oligos (Hoover and Lubkowski, 2002) and cloned into pET29b (NdeI-XhoI sites) with C-terminal 6his tags for purification from E. coli, or cloned into PETCON (NdeI-XhoI sites; (Fleishman et al., 2011)) for yeast surface expression. Alternative tags were added using PCR methods. Point mutations were made by overlapping PCR (Procko et al., 2013). Error-prone PCR with an average error rate of 1.3 amino acid substitutions per clone used GeneMorph II Random Mutagenesis (Agilent Technologies).
Purified avi-6his-tagged ligands (20 μM) in reaction buffer (250 mM potassium glutamate, 20 mM Tris-Cl [pH 7.5], 50 mM bicine [pH 8.3], 10 mM ATP, 10 mM MgOAc, 100 μM d-biotin) were enzymatically biotinylated with 150 U/μl BirA (Avidity) at room temperature overnight, followed by purification with NiNTA-agarose and SEC. Biotinylated ligands were stored at 4° C. in 150 mM NaCl, 20 mM Tris-Cl (pH 7.5), 1 mM DTT, 0.02% sodium azide.
Data were collected on an Octet RED96 (Forte Bio) and processed using the instrument's integrated software. […] Biosensors were dipped in solutions containing the analyte of interest to measure association, and transferred back to empty binding buffer for monitoring dissociation. Kinetic constants were determined from the mathematical fit of a 1:1 binding model.

Mcl-1-dependent MEF line = experiment: Long-term survival (colony) assay, Mcl-1-dependent MEFs; type: cell-based, mouse; conditions: seven day colony survival, doxycycline-induced expression
From the text: Mouse embryonic fibroblasts were generated from E13-E14.5 embryos derived from CreERT2/Bcl-x^fl/fl/Mcl-I^fl/fl C57BL/6 mice (Kelly et al., 2014) and immortalized (at passage 2-4) with SV40 large T antigen. Retroviral expression constructs in the pMIG vector (Murine Stem Cell Virus-IRES-GFP) expressing each FLAG-tagged pro-survival protein were transiently transfected using LIPOFECTAMINE™ (Invitrogen), into Phoenix ecotropic packaging cells. Filtered virus-containing supernatants were used to infect the MEFs by spin inoculation as previously described (Lee et al., 2008). Cells stably expressing each pro-survival protein were selected by sorting GFP^+ve cells 24 hours after spin inoculation and protein expression verified by Western blotting using an anti-FLAG antibody. Following verification of exogenous pro-survival protein expression, each cell line was treated with 1 μM Tamoxifen (Sigma-Aldrich) to enable deletion of endogenous Mcl-1 and Bcl-xL. Deletion of endogenous Mcl-1 and Bcl-xL was shown by Western blotting using anti-Mcl-1 (Rockland Clone, 600-401-394) and anti-Bcl-xL (BD Transduction Laboratories Clone 44/Bcl-x) antibodies. Cells were maintained in DME Kelso medium supplemented with 10% (v/v) fetal bovine serum, 250 mM L-asparagine and […] 2-mercaptoethanol.
Inducible αMCL1 and αBFL1 constructs were generated in a lentiviral vector described in Aubrey et al. (2015). […]

[1] = system: Bim association with pro-survival homologs in HeLa cells; experiment: Bim co-immunoprecipitation in HeLa cells; type: cell-based, human
Method: Cells were harvested, washed with PBS, and extracted with ice-cold Chaps buffer (40 mM Tris-HCl, pH 7.5, 150 mM NaCl, 1 mM EDTA, 2% CHAPS, and Complete Protease Inhibitors [Roche]) for 20 minutes, on ice. Extracts were spun down at 10,000 g for 10 min and supernatants were removed and used for SDS-PAGE analysis. Expression of proteins of interest was analyzed using antibodies against Bcl-2, Bcl-xL, Mcl-1 (as above), Bfl-1 (ProsSci, Inc.), Bim (BD Biosciences), and tubulin (SigmaAldrich). For immunoprecipitation experiments, 1,000 μg protein lysates were pre-cleared and then incubated with 3 μg Bim antibody for 2 hours at 4° C., followed by addition of Protein A/G Plus agarose beads (Santa Cruz Biotechnology) and overnight incubation with rotation at 4° C. Negative control reactions used normal IgG. Immunoprecipitates were washed four times with lysis buffer and eluted with loading buffer at 95° C., 2 times for 10 min, followed by SDS-PAGE analysis.

colon cancer cell lines = experiment: Long-term survival assay, colon cancer cell lines; type: cell-based, human; conditions: colon cancer lines
Method: Inducible αMCL1 and αBFL1 constructs were generated in a lentiviral vector described in Aubrey et al. (2015). Ligand expression is linked via the T2A peptide to mCherry™ fluorescent reporter protein. […] Viral supernatants were then filtered prior to target cell transduction. […] For infection of MEFs and colon cancer cell lines, equal volume of virus-containing supernatant was added to target cells pre-incubated with 10 ng/μL polybrene, and centrifuged at 2500 rpm for 2 hours at 32° C. Following spin inoculation, cells were then incubated overnight at 37° C. Cells expressing the doxycycline-inducible constructs were then selected by sorting mCherry^+ve cells. MEFs were maintained in DME Kelso medium supplemented with 10% (v/v) FBS, 250 mM L-asparagine and […] 2-mercaptoethanol. Colon cancer cell lines were maintained in DMEM/F-12 supplemented with 10% (v/v) FBS.
MEF and colon cancers were seeded in 6-well tissue culture plates in 2 mL culture media at 150 cells per mL. The next day and every 48 hours following, doxycycline was added at a final concentration of 1 μg/mL to each well, while nothing was added to control wells.

BCL2 family proteins = experiment: BLI specificity across BCL2 family proteins (next tightest binder versus intended target); parameters: species or system human; conditions: fold weaker affinity for next tightest binding BCL2 family protein versus intended target

Sequence of BHRF1 (P03182 1-161): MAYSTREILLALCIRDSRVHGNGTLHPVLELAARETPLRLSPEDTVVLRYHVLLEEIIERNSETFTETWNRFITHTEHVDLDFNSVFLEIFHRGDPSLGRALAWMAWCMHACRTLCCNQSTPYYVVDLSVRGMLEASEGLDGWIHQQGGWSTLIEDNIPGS
T1 sequence (Q07820 172-327): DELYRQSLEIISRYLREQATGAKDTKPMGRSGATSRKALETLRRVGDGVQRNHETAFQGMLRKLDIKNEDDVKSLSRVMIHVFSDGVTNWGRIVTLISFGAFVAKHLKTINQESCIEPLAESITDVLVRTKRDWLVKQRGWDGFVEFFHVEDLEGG

Molecule | Log2 Enrichment Ratio: 400 nM BHRF1 (BHRF1) | affinity for other BCL2 family members relative to Mcl-1 (Mcl-1) | decrease in survival (Mcl-1-dependent MEF line) | effect on Bim binding profile ([1]; Bcl-2+ HeLa cells) | effect on Bim binding profile ([1]; wild-type HeLa cells) | effect on long-term survival (in words) (colon cancer cell lines) | Specificity (BCL2 family proteins)
B1 | BHRF1 −2.81 |  |  |  |  |  | 
B2 |  | over ten thousand-fold weaker affinity | 90±11% | no effect | displacement of Bim from Mcl-1 | negligible effect | 93,000
